{"source": "patent US20060084798", "about": "“cDNAs and proteins involved in hypoxia, circadian and orphan signal transduction pathways, and methods of use” (published 2006)", "binders": {"B1": {"name": "OL443/OL444 GTGCGTG (SAE) (dsDNA)", "DNA 1": "TCGAGCTGGGCAGGGTGCGTGGCAAGGC", "DNA 2": "TCGAGCCTTGCCACGCACCCTGCCCAGC"}, "B2": {"name": "M13 reporter insert OL1155 (reporter carries six M13 copies) (dsDNA)", "DNA 1": "GATCGGATACGTGACCATTGGTTACGTGTCCATTGGATACGTGACC", "DNA 2": "GGTCACGTATCCAATGGACACGTAACCAATGGTCACGTATCCGATC"}, "B3": {"name": "M13 element (dsDNA)", "DNA 1": "GCCCTACGTGACCC", "DNA 2": "GGGTCACGTAGGGC"}, "B4": {"name": "OL414/OL415 TACGTG (HRE) (dsDNA)", "DNA 1": "TCGAGCTGGGCAGGGTACGTGGCAAGGC", "DNA 2": "TCGAGCCTTGCCACGTACCCTGCCCAGC"}, "B5": {"name": "OL445/OL446 CACGTG E-box (dsDNA)", "DNA 1": "TCGAGCTGGGCAGGTCACGTGGCAAGGC", "DNA 2": "TCGAGCCTTGCCACGTGACCTGCCCAGC"}, "B6": {"name": "OL447/OL448 TTGCGTG (DRE) (dsDNA)", "DNA 1": "TCGAGCTGGGCAGGTTGCGTGGCAAGGC", "DNA 2": "TCGAGCCTTGCCACGCAACCTGCCCAGC"}}, "key": {"MOP1 (HIF1alpha)/AHR": {"target": "MOP1 (HIF1alpha)/AHR (UniProt Q16665;P35869 Q16665:1-826,P35869:1-848)", "sequence (Q16665 whole entry, chain 1 of 2)": "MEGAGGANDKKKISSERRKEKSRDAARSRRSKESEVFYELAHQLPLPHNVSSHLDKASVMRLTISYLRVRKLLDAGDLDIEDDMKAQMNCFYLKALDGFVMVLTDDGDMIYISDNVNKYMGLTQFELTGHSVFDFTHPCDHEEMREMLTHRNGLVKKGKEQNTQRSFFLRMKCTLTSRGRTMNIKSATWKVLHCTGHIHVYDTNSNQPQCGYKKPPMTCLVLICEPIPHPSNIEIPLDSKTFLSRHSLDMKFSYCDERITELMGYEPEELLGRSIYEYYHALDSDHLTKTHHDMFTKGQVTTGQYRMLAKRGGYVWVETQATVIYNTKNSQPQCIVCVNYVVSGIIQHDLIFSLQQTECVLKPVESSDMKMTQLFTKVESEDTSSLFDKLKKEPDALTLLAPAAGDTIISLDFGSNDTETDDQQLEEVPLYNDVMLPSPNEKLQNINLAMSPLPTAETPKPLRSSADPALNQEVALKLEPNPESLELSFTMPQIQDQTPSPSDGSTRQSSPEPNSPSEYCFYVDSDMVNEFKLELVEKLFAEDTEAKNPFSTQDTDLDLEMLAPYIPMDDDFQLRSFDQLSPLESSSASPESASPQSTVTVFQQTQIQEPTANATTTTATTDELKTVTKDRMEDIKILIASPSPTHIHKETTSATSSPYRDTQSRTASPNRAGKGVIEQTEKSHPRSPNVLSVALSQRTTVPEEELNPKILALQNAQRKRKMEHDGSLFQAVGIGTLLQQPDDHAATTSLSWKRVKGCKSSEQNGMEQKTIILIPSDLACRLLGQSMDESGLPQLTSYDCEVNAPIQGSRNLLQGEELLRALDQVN", "sequence (P35869 whole entry, chain 2 of 2)": "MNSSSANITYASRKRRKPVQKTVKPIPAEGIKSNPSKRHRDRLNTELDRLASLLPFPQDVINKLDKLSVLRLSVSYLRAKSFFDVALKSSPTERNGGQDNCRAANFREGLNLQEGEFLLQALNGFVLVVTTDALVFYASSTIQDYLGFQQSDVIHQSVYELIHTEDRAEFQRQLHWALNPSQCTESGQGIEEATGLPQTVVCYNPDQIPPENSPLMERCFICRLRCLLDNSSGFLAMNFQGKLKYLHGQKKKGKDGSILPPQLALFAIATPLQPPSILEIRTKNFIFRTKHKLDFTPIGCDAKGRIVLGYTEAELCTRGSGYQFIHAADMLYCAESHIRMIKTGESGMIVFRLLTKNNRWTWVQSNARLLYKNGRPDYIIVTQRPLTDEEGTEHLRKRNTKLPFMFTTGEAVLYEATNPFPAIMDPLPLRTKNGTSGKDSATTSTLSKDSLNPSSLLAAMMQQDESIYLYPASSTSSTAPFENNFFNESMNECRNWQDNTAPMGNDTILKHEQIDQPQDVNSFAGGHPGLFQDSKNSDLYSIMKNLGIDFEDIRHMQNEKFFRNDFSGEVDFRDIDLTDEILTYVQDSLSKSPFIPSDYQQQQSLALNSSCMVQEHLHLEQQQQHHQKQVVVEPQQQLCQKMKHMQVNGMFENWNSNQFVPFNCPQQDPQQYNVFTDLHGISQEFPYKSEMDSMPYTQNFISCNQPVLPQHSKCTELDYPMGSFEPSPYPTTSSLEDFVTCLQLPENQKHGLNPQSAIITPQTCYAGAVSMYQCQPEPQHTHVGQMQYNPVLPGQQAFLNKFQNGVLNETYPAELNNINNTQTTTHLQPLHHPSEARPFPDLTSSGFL", "assay": "EMSA; no complex with any bHLH-PAS family response element"}, "[1]": {"target": "T1, MOP1 (HIF1alpha)/ARNT heterodimer (Homo sapiens, UniProt Q16665;P27540 Q16665:1-826,P27540:1-789)", "T1 sequence (Q16665 whole entry, chain 1 of 2)": "as the sequence (Q16665 whole entry, chain 1 of 2) above", "T1 sequence (P27540 whole entry, chain 2 of 2)": "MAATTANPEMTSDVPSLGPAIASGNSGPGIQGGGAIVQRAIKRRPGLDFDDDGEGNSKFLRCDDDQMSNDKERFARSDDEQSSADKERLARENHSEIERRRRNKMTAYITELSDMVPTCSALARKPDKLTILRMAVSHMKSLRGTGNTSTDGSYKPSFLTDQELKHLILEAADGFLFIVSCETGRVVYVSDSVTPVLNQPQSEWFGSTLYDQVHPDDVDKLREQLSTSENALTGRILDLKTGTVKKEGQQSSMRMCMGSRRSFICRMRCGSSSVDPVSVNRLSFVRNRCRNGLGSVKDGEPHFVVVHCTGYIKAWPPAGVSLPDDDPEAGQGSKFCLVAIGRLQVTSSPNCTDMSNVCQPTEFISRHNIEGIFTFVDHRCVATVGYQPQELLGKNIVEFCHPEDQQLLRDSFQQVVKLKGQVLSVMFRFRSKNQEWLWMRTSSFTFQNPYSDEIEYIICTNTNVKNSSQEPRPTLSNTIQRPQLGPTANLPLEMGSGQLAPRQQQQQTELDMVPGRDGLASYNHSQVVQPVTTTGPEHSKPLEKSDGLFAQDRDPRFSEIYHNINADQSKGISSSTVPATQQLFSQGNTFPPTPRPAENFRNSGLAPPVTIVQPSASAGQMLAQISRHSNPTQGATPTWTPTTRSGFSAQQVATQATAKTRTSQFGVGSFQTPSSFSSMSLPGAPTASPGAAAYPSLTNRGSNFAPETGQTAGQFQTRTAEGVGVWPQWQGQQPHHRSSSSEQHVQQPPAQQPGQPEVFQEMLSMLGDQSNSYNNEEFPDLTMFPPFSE", "assay": "EMSA"}, "[2]": {"target": "ARNT/HIF1alpha (transfected) (Homo sapiens, UniProt P27540;Q16665 P27540:1-789,Q16665:1-826)", "assay": "cell_activity; COS-1 luciferase", "description": "(§1) Cell Culture and Transient Transfection. Transient transfections of COS-1 cells were performed by the Lipofectamine protocol (GIBCO) as described in Example 1. To mimic hypoxia, 100 μM of cobalt chloride was included in the cell growth media and incubated at 37° C. until harvest. To monitor the transcriptional activity of the MOP3-MOP4 or MOP3-CLOCK heterodimers, a synthetic reporter was constructed by annealing phosphorylated oligonucleotides OL1116 and OL1117 and cloning them into the BglII site in the reporter plasmid pGL3p (Promega). To measure the transcriptional activity of the MOP3-HIF1α or MOP3-HIF2α heterodimers, a synthetic reporter was constructed by annealing phosphorylated oligonucleotides OL1155 and OL1156 and then cloning them as above. Luciferase levels were reported in relation to β-galactosidase activity as described in Example 1.\n(§2) To determine if MOP3 formed a transcriptionally active complex with either HIF1α or HIF2α in vivo, we constructed a synthetic reporter using six copies of the M13 element described above. […] Like ARNT, upon exposure of these transfected cells to cobalt chloride to simulate cellular hypoxia, MOP3 interacted and drove transcription in complexes with both HIF1α and with HIF2α."}, "[3]": {"target": "ARNT/HIF2alpha (transfected) (Homo sapiens, UniProt P27540;Q99814 P27540:1-789,Q99814:1-870)", "assay": "cell_activity; COS-1 luciferase", "description": "as §1, §2"}, "MOP1 (HIF1alpha) [4]": {"target": "T2, MOP1 (HIF1alpha) (Homo sapiens, UniProt Q16665 SEQ:1-826)", "T2 sequence (Q16665 whole entry)": "as the sequence (Q16665 whole entry, chain 1 of 2) above", "assay": "EMSA; HIF1alpha alone"}, "MOP1 (HIF1alpha) [5]": {"target": "T2, MOP1 (HIF1alpha)", "assay": "EMSA; MOP1 alone", "conditions": "label: 32P"}, "[6]": {"target": "MOP7 (HIF3alpha)/human ARNT heterodimer (Mus musculus, UniProt Q0VBL6;P27540 Q0VBL6:1-662,P27540:1-789)", "assay": "EMSA; abolished by anti-ARNT", "conditions": "label: 32P", "description": "Gel-shift assay. To generate a double strand oligonucleotide probe containing the core HRE element, 50 ng of oligonucleotide OL414 was end-labeled with [γ-³²P]ATP and was annealed with 10 fold excess of cold complementary oligonucleotide OL415. […] For expression of the bHLH-PAS proteins, mMOP7 (PL1025) and hARNT (PL87) were synthesized in a reticulocyte lysate in the presence of [³⁵S]methionine. The amount of each protein synthesized was calculated by measuring radioactivity and estimated to be approximately 1 fmol in each 10 μl gel-shift reaction. Each gel-shift assay was performed with 100,000 cpm of oligonucleotide probe per 10 μl reaction. To confirm complex identity, 1 μl of anti-ARNT sera was used to supershift the DNA bound protein complex.\nAs a biochemical proof that MOP7 was a bona fide α-class HIF, we performed gel-shift and transient transfection analyses. Because HIF1α and HIF2α are known to pair with the β-class HIF subunit ARNT, we predicted that MOP7 would also pair with ARNT. Based upon sequence identity in their basic regions, we also predicted that a MOP7-ARNT would bind the HRE core sequence, TACGTG. […] First, the MOP7-ARNT-HRE complex was abolished by anti-ARNT IgGs but not by preimmune antibodies. Second, the complex was blocked by an excess of HRE containing oligonucleotide but not by oligonucleotides with a single mutation within the core HRE sequence. […]"}, "[7]": {"target": "T1, MOP1 (HIF1alpha)/ARNT heterodimer", "assay": "EMSA; oligo assignment by core; supershifted by antisera", "conditions": "label: 32P"}, "ARNT": {"target": "ARNT (Homo sapiens, UniProt P27540 P27540:1-789)", "sequence (P27540 whole entry, one chain of several)": "as the sequence (P27540 whole entry, chain 2 of 2) above", "assay": "EMSA; ARNT alone", "conditions": "label: 32P"}, "[8]": {"target": "MOP2 (HIF2alpha)/ARNT heterodimer (Homo sapiens, UniProt Q99814;P27540 Q99814:1-870,P27540:1-789)", "assay": "EMSA; approximately equal to MOP1-ARNT; supershifted by antisera", "conditions": "label: 32P"}, "[9]": {"target": "T1, MOP1 (HIF1alpha)/ARNT heterodimer", "assay": "EMSA; higher affinity than MOP1 or ARNT alone"}}, "note": "Where two headings read alike, the source gives them in different places."}
{"binder": "B1", "values": [{"measurement": "binding result", "setting": "MOP1 (HIF1alpha)/AHR", "result": "no binding"}, {"measurement": "binding result", "setting": "[1]", "result": "no binding"}]}
{"binder": "B2", "values": [{"measurement": "activity", "setting": "[2]", "result": 14.1, "unit": "fold"}, {"measurement": "activity", "setting": "[3]", "result": 8.1, "unit": "fold"}]}
{"binder": "B3", "values": [{"measurement": "binding result", "setting": "MOP1 (HIF1alpha) [4]", "result": "no binding"}]}
{"binder": "B4", "values": [{"measurement": "binding result", "setting": "MOP1 (HIF1alpha)/AHR; label: 32P", "result": "no binding"}, {"measurement": "binding result", "setting": "MOP1 (HIF1alpha) [5]", "result": "no binding"}, {"measurement": "binding result", "setting": "[6]", "result": "binds"}, {"measurement": "binding result", "setting": "[7]", "result": "binds"}, {"measurement": "binding result", "setting": "ARNT", "result": "no binding"}, {"measurement": "binding result", "setting": "[8]", "result": "binds"}]}
{"binder": "B5", "values": [{"measurement": "binding result", "setting": "MOP1 (HIF1alpha)/AHR", "result": "no binding"}, {"measurement": "binding result", "setting": "[9]", "result": "binds"}]}
{"binder": "B6", "values": [{"measurement": "binding result", "setting": "MOP1 (HIF1alpha)/AHR", "result": "no binding"}, {"measurement": "binding result", "setting": "[1]", "result": "no binding"}]}
